In assay [1] the target is ubiquitin polyprotein composed of nine identical repeats (Ubi)9 (UniProt P0CG48).
Assay [2] deals with ubiquitin polyprotein composed of nine identical repeats (Ubi)9. Description: single-molecule force-clamp spectroscopy (AFM) with a kinetic model fit; (Ubi)9 tethered between gold and cantilever, 5 uM DnaJ in solution; PBS + 5 mM MgCl2 pH 7.4, 22 C; binding to ubiquitin held extended at 170 pN for text 0-30 s, quench 5 s; kon and koff of the extended state as free parameters of the kinetic model.

The target of assay [3] is ubiquitin polyprotein composed of nine identical repeats (Ubi)9 (UniProt P0CG48). The source holds these as a separate data set.
Assay [4] deals with (I27)8 polyprotein of the I27th Ig domain of titin. Briefly: single-molecule force-clamp spectroscopy (AFM); collapsed (molten globule-like) states: polyprotein tethered between a gold surface and the cantilever tip, unfolded, force quenched for tq 0.5 to 15 s with 5 uM chaperone (DnaK with ADP); refolding yield read in a test pulse; constants from a multiparametric fit of a kinetic model; PBS + 5 mM MgCl2, pH 7.4, 22 C.

Assay [5] concerns the target ubiquitin polyprotein composed of nine identical repeats (Ubi)9 (UniProt P0CG48). This is another data set of the same source.
Assay [6] shares this target. Briefly: single-molecule force-clamp spectroscopy (AFM); extended state: polyprotein tethered between a gold surface and the cantilever tip, unfolded and held extended at high force (120 pN; 170 pN for the constants of the extended conformation) for text 1 to 30 s with 5 uM chaperone (DnaK with ADP); refolding yield read in a test pulse after tq = 5 s; constants from a multiparametric fit of a kinetic model; PBS + 5 mM MgCl2, pH 7.4, 22 C.

Assay [7] deals with ubiquitin polyprotein composed of nine identical repeats (Ubi)9. Briefly: single-molecule force-clamp spectroscopy (AFM) with a kinetic model fit; (Ubi)9 tethered between gold and cantilever, 5 uM chaperone in solution (DnaK with ADP); PBS + 5 mM MgCl2 pH 7.4, 22 C; binding to ubiquitin mechanically unfolded and held extended at 120 pN; constants from a multiparametric fit of ordinary differential equations to the refolding yields.

Assay [8] addresses (I27)8 polyprotein of the I27th Ig domain of titin. Description: single-molecule force-clamp spectroscopy (AFM) with a kinetic model fit; polyprotein tethered between gold and cantilever, 5 uM chaperone in solution (DnaK with ADP); PBS + 5 mM MgCl2 pH 7.4, 22 C; binding to the collapsed state during the quench at 0 pN (tq 0.5-15 s); constants from a multiparametric fit of the kinetic model to the refolding kinetics.

Assay [9] deals with ubiquitin polyprotein composed of nine identical repeats (Ubi)9 (UniProt P0CG48). This is another data set of the same source.
Assay [10] shares this target. Briefly: single-molecule force-clamp spectroscopy (AFM); collapsed (molten globule-like) states: polyprotein tethered between a gold surface and the cantilever tip, unfolded, force quenched for tq 0.5 to 15 s with 5 uM chaperone (DnaK with ADP); refolding yield read in a test pulse; constants from a multiparametric fit of a kinetic model; PBS + 5 mM MgCl2, pH 7.4, 22 C.

For assay [11], the target named is (I27)8 polyprotein of the I27th Ig domain of titin.

DnaJ (Hsp40), sequence (P08622 whole entry): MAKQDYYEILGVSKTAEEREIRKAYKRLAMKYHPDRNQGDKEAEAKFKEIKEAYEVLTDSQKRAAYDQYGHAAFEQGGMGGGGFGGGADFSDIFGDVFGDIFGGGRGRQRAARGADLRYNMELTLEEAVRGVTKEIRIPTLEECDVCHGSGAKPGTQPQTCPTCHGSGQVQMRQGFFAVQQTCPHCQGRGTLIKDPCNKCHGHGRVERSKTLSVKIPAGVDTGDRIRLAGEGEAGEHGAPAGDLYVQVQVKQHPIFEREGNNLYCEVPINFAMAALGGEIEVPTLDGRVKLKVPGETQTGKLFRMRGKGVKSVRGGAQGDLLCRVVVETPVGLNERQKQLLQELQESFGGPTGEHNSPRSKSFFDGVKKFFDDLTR
DnaK (Hsp70), sequence (P0A6Y8 whole entry): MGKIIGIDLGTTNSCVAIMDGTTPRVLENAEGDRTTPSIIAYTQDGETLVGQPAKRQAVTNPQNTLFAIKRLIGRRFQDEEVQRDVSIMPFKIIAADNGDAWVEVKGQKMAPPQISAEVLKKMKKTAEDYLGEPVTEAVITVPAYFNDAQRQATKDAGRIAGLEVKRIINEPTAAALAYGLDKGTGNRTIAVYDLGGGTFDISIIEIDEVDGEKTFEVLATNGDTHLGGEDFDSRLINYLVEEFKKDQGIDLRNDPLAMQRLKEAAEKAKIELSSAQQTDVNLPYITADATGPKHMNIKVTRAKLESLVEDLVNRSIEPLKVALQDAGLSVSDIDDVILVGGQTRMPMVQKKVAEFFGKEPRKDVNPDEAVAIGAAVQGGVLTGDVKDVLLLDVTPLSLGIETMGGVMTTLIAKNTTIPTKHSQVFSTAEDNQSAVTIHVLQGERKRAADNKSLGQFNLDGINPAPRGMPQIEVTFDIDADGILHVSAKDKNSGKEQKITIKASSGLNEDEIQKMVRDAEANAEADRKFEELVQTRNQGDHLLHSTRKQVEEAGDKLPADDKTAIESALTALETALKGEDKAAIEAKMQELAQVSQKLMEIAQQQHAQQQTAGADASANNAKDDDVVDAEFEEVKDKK

As to “DnaJ (Hsp40) (from UniProt P08622 1-376) (natural protein)”, the rate of the exponential decrease of the refolding efficiency of ubiquitin with the time held extended (text 1 to 30 s, tq = 5 s) with 5 μM DnaJ in [1] worked out at 0.27 s⁻¹. The kon stood at 48700 M⁻¹ s⁻¹ in assay [2], 250000 M⁻¹ s⁻¹ in assay [4] and 29900 M⁻¹ s⁻¹ in [7]. In assay [3], this substance displayed a plateau of the refolding yield of ubiquitin in force-quench trajectories (tq 0.5 to 15 s) with 5 μM DnaJ (~75% without DnaJ) of 30%. The results for the Kd in assay [4] and in assay [6] were 330 nM and 940 nM, respectively. Besides, the refolding percentage of ubiquitin after 15 s stretched at 50 to 300 pN with DnaJ, tq = 5 s (10% at 150 to 170 pN, ~30% at 300 pN, ~50% at 50 pN) in assay [5] came out at 50%. For the same substance, the koff in assay [7] came out at 0.0492 s⁻¹; in assay [8], 0.0472 s⁻¹.
Turning to “DnaK (Hsp70) (from UniProt P0A6Y8 1-638) (natural protein)”, the plateau of the refolding yield of ubiquitin in force-quench trajectories (tq 0.5 to 15 s) with 5 μM DnaK(ADP) in assay [9] worked out at 30%. The Kd stood at 270 nM in [4] and 140 nM in [10]. Besides, in assay [11], the refolding yield of I27 with DnaK(ADP) is 50%. The koff in assay [8] came out at 0.029 s⁻¹.

As usually defined, the kon is the rate constant with which the complex forms. A word on the Kd: it is a measure of binding affinity in units of concentration. The term koff denotes the first-order rate constant of dissociation.
